{"source": "patent US9018171B2", "about": "“Uses of an immunomodulatory protein (GMI) from Ganoderma microsporum” (Mycomagic Biotechnology Co., Ltd., priority 2010, dated 2015)", "key": {"A549 cells [1]": {"tested_on": "A549 cells", "assay": "Wound-healing assay", "type": "cell-based, human", "settings": "24 h", "experimental": "Wound-healing assay was carried out to evaluate the inhibitory effects of (A) GMI or (B) AG1478 on A549 cell migration. Confluent monolayers of A549 cells were scarred, and repair was monitored microscopically after 24 h of treatment with (A) GMI or (B) AG1478. The cells migrating into the wound area were counted on the basis of the dashed line as time zero. On wound-healing assay, the cancer cells were cultured onto 24-well plates and grown in medium containing 10% FBS to nearly confluent cell monolayer. A plastic pipette tip was used to draw a linear “wound” in the cell monolayer of each well. The monolayer was then washed twice with PBS to remove debris or detached cells, and GMI was added at different concentrations ([…]). PBS was added to the control well as the solvent control. After 24 h of incubation, the cells were washed twice with PBS, fixed with 95% alcohol, and stained with 10% Giemsa solution (Merck). The cells were photographed under a light microscope (magnification, ×200). The experiments were performed in triplicate. After incubation with 2-8 μg/ml of GMI for 24 h, the cells that migrated to the denuded zone were photographed."}, "ACHN": {"tested_on": "ACHN", "assay": "NCI60 in vitro screening, Renal Cancer", "type": "cell-based"}, "A549 cells [2]": {"tested_on": "A549 cells", "assay": "Cell invasion assay (modified Boyden chamber, Matrigel)", "type": "cell-based, human", "experimental": "A549 cells (2×10^4 cells/well) were seeded onto the upper chamber of membrane and treated with different concentrations of GMI (4, 8, 16 μg/ml) for 2 hours. The bottom chamber was filled with DMEM supplemented with EGF 10 ng/ml or 100 ng/ml. After about 24 h, the invasive A549 cells passed through the membrane and were quantified by counting the cells that migrated onto the membrane. Cells were fixed, stained, and counted as described in the text. The data represent mean±SD.\nCell invasion assays were performed using modified Boyden chambers 6.5 mm in diameter, with […] porous (8 μm) polycarbonate membrane separating the two chambers (Transwell; Costar, Cambridge, Mass.). The membrane of the upper chamber was coated with Matrigel (0.3 mg/mL; BD Biosciences Discovery Labware) for 3 hours. Condition medium was prepared from A549 cells which were pretreated with or without GMI, LY294002 (50 μM), or AG1478 (2 μM) for 8 h. To the medium of the bottom chamber was added 10% FBS-DMEM containing EGF (10 ng/ml) or condition medium. Cells were trypsinized, centrifuged, and resuspended at 4×10^5 cells/mL in 0.5% FBS-DMEM. After 24 h incubation, the cells on the upper well and the membranes coated with Matrigel were fixed with methanol, and stained with 20% Giemsa solution (Merck). The cells that were attached to the lower surface of the polycarbonate filter were counted under a light microscope (magnification, X 100). The experiments were performed in triplicate."}, "MOLT-4": {"tested_on": "MOLT-4", "assay": "NCI60 in vitro screening, Leukemia", "type": "cell-based"}, "SK-OV-3": {"tested_on": "SK-OV-3", "assay": "NCI60 in vitro screening, Ovarian Cancer", "type": "cell-based"}, "A549 cells [3]": {"tested_on": "A549 cells", "assay": "Actin staining", "type": "cell-based, human", "experimental": "A549 cells (1×10^4 cells/well) were seeded onto 24 wells with coverslip. A549 cells were pretreated with various concentrations of GMI (2, 4, 8 μg/ml) for 1 h before being stimulated with 10 ng/mL EGF for 23 h. A549 cells treated with or without EGF were stained with Texas Red®-X phalloidin and Alexa Fluor 488 DNase I conjugate to detect F-actin (red) and G-actin (green).\nCells were washed twice with PBS and fixed in a 3.7% paraformaldehyde-PBS solution for 10 min at room temperature. After two additional washes with PBS, cells were permeabilized with a solution of 0.1% Triton X-100 in PBS for 3 to 5 min and washed again with PBS. Texas Red-X phalloidin (2 units/mL) and Alexa Fluor 488 DNase I conjugate (9 μg/mL) were used to localize filamentous actin (F-actin) and G-actin. Fluorescent dyes were diluted with blocking solution (1% bovine serum albumin and 0.025% saponin in PBS) and added to coverslips for 60 min at room temperature. After three washes with PBS, coverslips were mounted on a microscope slide with Prolong Gold antifade reagent with DAPI (Life Technologies). F-actin cytoskeleton imaging was performed with a confocal laser scanning microscope (ZEISS LSM510 BETA) at ×400 magnification."}, "OVCAR-8": {"tested_on": "OVCAR-8", "assay": "NCI60 in vitro screening, Ovarian Cancer", "type": "cell-based"}, "HCC-2998": {"tested_on": "HCC-2998", "assay": "NCI60 in vitro screening, Colon Cancer", "type": "cell-based"}, "HCT-116": {"tested_on": "HCT-116", "assay": "NCI60 in vitro screening, Colon Cancer", "type": "cell-based"}}, "note": "“Also recorded” adds a separate entry of the source.", "data": [{"molecule": "GMI: immunomodulatory protein from Ganoderma microsporum, amino acid sequence SEQ ID NO: 3, manufactured by Mycomagic Biotechnology Co., Ltd. (protein, listed as Ganoderma microsporum) MSDTALIFTLAWNVKQLAFDYTPNWGRGRPSSFIDTVTFPTVLTDKAYTYRVVVSGKDLGVRPSYAVESDGSQKINFLEYNSGYGIADTNTIQVYVIDPDTGNNFIVAQWN", "values": [{"measurement": "A549 cell migration to the denuded zone", "setting": "A549 cells [1]; GMI 2-8 μg/ml", "result": "dose-dependently suppresses A549 cell migration"}, {"measurement": "EGF-induced migration / wound closure activity", "setting": "A549 cells [1]; co-treated with EGF", "result": "markedly decreased wound closure activity"}, {"measurement": "TGI", "setting": "ACHN", "result": "3.62E1"}, {"measurement": "Percent Growth", "setting": "ACHN; Log10 Concentration 0.1", "result": 103, "unit": "%"}, {"measurement": "Percent Growth", "setting": "ACHN; Log10 Concentration 1.1", "result": 36, "unit": "%"}, {"measurement": "Percent Growth", "setting": "ACHN; Log10 Concentration 2.1", "result": "−42", "unit": "%"}, {"measurement": "Percent Growth", "setting": "ACHN; Log10 Concentration −0.9", "result": 99, "unit": "%"}, {"measurement": "Percent Growth", "setting": "ACHN; Log10 Concentration −1.9", "result": 109, "unit": "%"}, {"measurement": "GI50", "setting": "ACHN; in µg/mL", "result": "7.65E0"}, {"measurement": "Growth Percent", "setting": "ACHN; one dose", "result": "−33.94", "unit": "%"}, {"measurement": "EGF-promoted invasion reduced to", "setting": "A549 cells [2]; GMI 4 μg/ml, EGF", "result": 52, "unit": "%"}, {"measurement": "invaded cell number", "setting": "A549 cells [2]; GMI 4 μg/ml, EGF, decreased from 2515±212", "result": "1306±30"}, {"measurement": "invasion reduced to", "setting": "A549 cells [2]; GMI 4 μg/ml, without EGF", "result": 22, "unit": "%"}, {"measurement": "invaded cell number", "setting": "A549 cells [2]; GMI 4 μg/ml, without EGF, decreased from 1895±37", "result": "419±6"}, {"measurement": "EGF-promoted invasion reduced to", "setting": "A549 cells [2]; GMI 16 μg/ml, EGF", "result": "less than 5%"}, {"measurement": "invaded cell number", "setting": "A549 cells [2]; GMI 16 μg/ml, EGF, decreased from 2515±212", "result": "121±39"}, {"measurement": "invasion reduced to", "setting": "A549 cells [2]; GMI 16 μg/ml, without EGF", "result": "less than 9%"}, {"measurement": "invaded cell number", "setting": "A549 cells [2]; GMI 16 μg/ml, without EGF, decreased from 1895±37", "result": "61±3"}, {"measurement": "EGF-promoted invasion of A549 cells", "setting": "A549 cells [2]; increasing concentrations of GMI, EGF", "result": "significantly inhibits; also recorded: dose-dependent decrease in EGF-promoted invasion"}, {"measurement": "invasion of A549 cells", "setting": "A549 cells [2]; increasing concentrations of GMI, without EGF", "result": "dose-dependent decrease in invasion"}, {"measurement": "TGI", "setting": "MOLT-4; MOLT-4", "result": ">1.25E2"}, {"measurement": "Percent Growth", "setting": "MOLT-4; MOLT-4, Log10 Concentration 0.1", "result": 103, "unit": "%"}, {"measurement": "Percent Growth", "setting": "MOLT-4; MOLT-4, Log10 Concentration 1.1", "result": 62, "unit": "%"}, {"measurement": "Percent Growth", "setting": "MOLT-4; MOLT-4, Log10 Concentration 2.1", "result": 1, "unit": "%"}, {"measurement": "Percent Growth", "setting": "MOLT-4; MOLT-4, Log10 Concentration −0.9", "result": 97, "unit": "%"}, {"measurement": "Percent Growth", "setting": "MOLT-4; MOLT-4, Log10 Concentration −1.9", "result": 95, "unit": "%"}, {"measurement": "Growth Percent", "setting": "MOLT-4; MOLT-4, one dose", "result": 44.75, "unit": "%"}, {"measurement": "GI50", "setting": "MOLT-4; MOLT-4, in µg/mL", "result": "1.99E1"}, {"measurement": "TGI", "setting": "SK-OV-3; SK-OV-3", "result": ">1.25E2"}, {"measurement": "Percent Growth", "setting": "SK-OV-3; SK-OV-3, Log10 Concentration 0.1", "result": 107, "unit": "%"}, {"measurement": "Percent Growth", "setting": "SK-OV-3; SK-OV-3, Log10 Concentration 1.1", "result": 94, "unit": "%"}, {"measurement": "Percent Growth", "setting": "SK-OV-3; SK-OV-3, Log10 Concentration 2.1", "result": 55, "unit": "%"}, {"measurement": "Percent Growth", "setting": "SK-OV-3; SK-OV-3, Log10 Concentration −0.9", "result": 103, "unit": "%"}, {"measurement": "Percent Growth", "setting": "SK-OV-3; SK-OV-3, Log10 Concentration −1.9", "result": 103, "unit": "%"}, {"measurement": "Growth Percent", "setting": "SK-OV-3; SK-OV-3, one dose", "result": 89.18, "unit": "%"}, {"measurement": "elongation and polymerization of F-actin and G-actin", "setting": "A549 cells [3]; A549 cells treated with EGF or GMI alone", "result": "abrogated"}, {"measurement": "filopodia formation", "setting": "A549 cells [3]; A549 cells, GMI 2, 4, 8 μg/ml, EGF 10 ng/mL", "result": "fewer filopodia fibers"}, {"measurement": "focal contact size", "setting": "A549 cells [3]; A549 cells, GMI alone and combined with EGF", "result": "reduced by GMI in a dose-dependent manner"}, {"measurement": "TGI", "setting": "OVCAR-8; OVCAR-8", "result": ">1.25E2"}, {"measurement": "Percent Growth", "setting": "OVCAR-8; OVCAR-8, Log10 Concentration 0.1", "result": 99, "unit": "%"}, {"measurement": "Percent Growth", "setting": "OVCAR-8; OVCAR-8, Log10 Concentration 1.1", "result": 91, "unit": "%"}, {"measurement": "Percent Growth", "setting": "OVCAR-8; OVCAR-8, Log10 Concentration 2.1", "result": 31, "unit": "%"}, {"measurement": "Percent Growth", "setting": "OVCAR-8; OVCAR-8, Log10 Concentration −0.9", "result": 95, "unit": "%"}, {"measurement": "Percent Growth", "setting": "OVCAR-8; OVCAR-8, Log10 Concentration −1.9", "result": 98, "unit": "%"}, {"measurement": "Growth Percent", "setting": "OVCAR-8; OVCAR-8, one dose", "result": 76.68, "unit": "%"}, {"measurement": "GI50", "setting": "OVCAR-8; OVCAR-8, in µg/mL", "result": "6.00E1"}, {"measurement": "TGI", "setting": "HCC-2998; HCC-2998", "result": ">1.25E2"}, {"measurement": "Percent Growth", "setting": "HCC-2998; HCC-2998, Log10 Concentration 0.1", "result": 105, "unit": "%"}, {"measurement": "Percent Growth", "setting": "HCC-2998; HCC-2998, Log10 Concentration 1.1", "result": 93, "unit": "%"}, {"measurement": "Percent Growth", "setting": "HCC-2998; HCC-2998, Log10 Concentration 2.1", "result": 88, "unit": "%"}, {"measurement": "Percent Growth", "setting": "HCC-2998; HCC-2998, Log10 Concentration −0.9", "result": 99, "unit": "%"}, {"measurement": "Percent Growth", "setting": "HCC-2998; HCC-2998, Log10 Concentration −1.9", "result": 103, "unit": "%"}, {"measurement": "Growth Percent", "setting": "HCC-2998; HCC-2998, one dose", "result": 132.04, "unit": "%"}, {"measurement": "TGI", "setting": "HCT-116; HCT-116", "result": ">1.25E2"}, {"measurement": "Percent Growth", "setting": "HCT-116; HCT-116, Log10 Concentration 0.1", "result": 101, "unit": "%"}, {"measurement": "Percent Growth", "setting": "HCT-116; HCT-116, Log10 Concentration 1.1", "result": 103, "unit": "%"}, {"measurement": "Percent Growth", "setting": "HCT-116; HCT-116, Log10 Concentration 2.1", "result": 104, "unit": "%"}, {"measurement": "Percent Growth", "setting": "HCT-116; HCT-116, Log10 Concentration −0.9", "result": 105, "unit": "%"}, {"measurement": "Percent Growth", "setting": "HCT-116; HCT-116, Log10 Concentration −1.9", "result": 98, "unit": "%"}, {"measurement": "Growth Percent", "setting": "HCT-116; HCT-116, one dose", "result": 101.77, "unit": "%"}]}]}
